Results on four molecules are retold here after article PMC8187647, “Low chorionic villous succinate accumulation associates with recurrent spontaneous abortion risk” (Nature Communications, 2021).

The target in data set [1] is T1, SDHA (Homo sapiens, UniProt P31040).
T1 construct: recombinant Flag-tagged SDHA, transient expression in HEK293T, anti-Flag M2 purified
In words: DARTS (Pronase proteolysis, western blot). The class given is binding. As to conditions: 1 mM aspirin, 1 h; Pronase 1:2000, room temperature, 30 min.

Data set [2] deals with T2, SDHC (Homo sapiens, UniProt Q99643).
T2 construct: recombinant Flag-tagged SDHC, transient expression in HEK293T, anti-Flag M2 purified
T2 sequence (Q99643 30-169): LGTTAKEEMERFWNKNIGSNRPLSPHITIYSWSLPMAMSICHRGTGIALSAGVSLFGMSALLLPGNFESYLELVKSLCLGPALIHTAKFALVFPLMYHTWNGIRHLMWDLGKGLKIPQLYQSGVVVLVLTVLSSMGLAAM
In words: DARTS (Pronase proteolysis, western blot). Type of data set: binding. As to conditions: 1 mM aspirin, 1 h; Pronase 1:2000, room temperature, 30 min. In general terms: Immunoblotting shows a protein as a band on a membrane.

Data set [3] deals with T3, MBD1 (UniProt Q9UIS9 1-605).
T3 sequence: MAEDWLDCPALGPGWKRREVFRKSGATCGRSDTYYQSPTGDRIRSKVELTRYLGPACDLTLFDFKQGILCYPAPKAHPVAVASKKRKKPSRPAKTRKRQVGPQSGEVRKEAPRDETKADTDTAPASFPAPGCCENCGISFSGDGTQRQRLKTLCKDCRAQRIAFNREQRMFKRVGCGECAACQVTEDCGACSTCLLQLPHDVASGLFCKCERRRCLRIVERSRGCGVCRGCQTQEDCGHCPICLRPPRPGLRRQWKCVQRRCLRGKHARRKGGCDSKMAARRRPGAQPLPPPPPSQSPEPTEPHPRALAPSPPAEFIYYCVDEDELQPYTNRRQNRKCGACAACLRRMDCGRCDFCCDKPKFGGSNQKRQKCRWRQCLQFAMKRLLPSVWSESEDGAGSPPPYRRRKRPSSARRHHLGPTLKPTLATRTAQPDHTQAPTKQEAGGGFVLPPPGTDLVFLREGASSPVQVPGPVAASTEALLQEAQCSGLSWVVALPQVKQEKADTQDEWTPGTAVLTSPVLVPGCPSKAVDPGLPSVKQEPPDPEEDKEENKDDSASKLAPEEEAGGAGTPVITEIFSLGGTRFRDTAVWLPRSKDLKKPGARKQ
In words: EMSA; EMSA Kit (Invitrogen), buffer, salt and pH not stated; 15 °C, 30 min; 6% native polyacrylamide gel. To be noted: protein: recombinant; tags: His6 (pET22b). (A gel shift assay detects complexes by their altered migration in electrophoresis.)

The target in data set [4] is c-Fos (UniProt P01100 1-380). The data set is described as above. As to conditions: protein: recombinant; tags: His6 (pET22b); chain copies: 2.
Chain of c-Fos (P01100 whole entry): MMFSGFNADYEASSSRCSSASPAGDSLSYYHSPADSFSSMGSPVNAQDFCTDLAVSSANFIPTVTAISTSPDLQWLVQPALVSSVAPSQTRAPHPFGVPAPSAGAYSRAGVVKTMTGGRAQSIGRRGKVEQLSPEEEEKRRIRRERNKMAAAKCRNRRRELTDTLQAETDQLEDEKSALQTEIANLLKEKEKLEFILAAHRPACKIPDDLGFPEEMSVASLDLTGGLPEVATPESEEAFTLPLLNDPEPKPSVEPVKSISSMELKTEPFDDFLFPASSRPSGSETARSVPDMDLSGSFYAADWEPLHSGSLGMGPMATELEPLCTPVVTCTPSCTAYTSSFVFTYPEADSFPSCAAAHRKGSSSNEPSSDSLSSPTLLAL

T1 sequence (P31040 43-664): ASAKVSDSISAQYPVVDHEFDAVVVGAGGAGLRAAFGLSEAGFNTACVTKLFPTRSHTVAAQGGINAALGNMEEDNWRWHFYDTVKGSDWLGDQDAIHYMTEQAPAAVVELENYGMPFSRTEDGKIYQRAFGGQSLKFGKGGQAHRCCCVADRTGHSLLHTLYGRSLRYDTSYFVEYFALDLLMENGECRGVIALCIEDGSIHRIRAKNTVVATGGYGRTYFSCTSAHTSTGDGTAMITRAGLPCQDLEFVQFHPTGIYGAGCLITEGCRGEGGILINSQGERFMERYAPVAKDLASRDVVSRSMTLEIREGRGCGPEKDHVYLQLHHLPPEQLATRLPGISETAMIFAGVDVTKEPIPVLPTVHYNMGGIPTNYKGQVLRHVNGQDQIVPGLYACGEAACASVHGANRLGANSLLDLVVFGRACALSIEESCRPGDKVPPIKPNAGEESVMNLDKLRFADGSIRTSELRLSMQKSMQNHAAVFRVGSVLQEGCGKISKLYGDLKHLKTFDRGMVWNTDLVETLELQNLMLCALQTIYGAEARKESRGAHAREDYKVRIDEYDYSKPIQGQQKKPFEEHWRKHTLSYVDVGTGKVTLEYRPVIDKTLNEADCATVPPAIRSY

Consider `CC(=O)Oc1ccccc1C(=O)O` [aspirin], for which the “DARTS (Pronase proteolysis, western blot)” value is “aspirin can specifically bind to SDHA and SDHC, but not SDHB and SDHD” in data set [1]; “aspirin can specifically bind to SDHA and SDHC, but not SDHB and SDHD” in data set [2].

B1: SDHB promoter -1172/-1165 CpG, methylated (dsDNA)
DNA 1: GGCAAGCTGCACGGTATGCGACAGAAAGGG
DNA 2: CCCTTTCTGTCGCATACCGTGCAGCTTGCC
modifications: 5mC at C12 and C19 of strand 1; methylation of the complement not stated
Take B1: the binding result in data set [3] is recorded as “binds”.

B2: SDHB promoter -1135 CpG, methylated (dsDNA)
DNA 1: ACTCAAGCCAGTAAGCGTCAGAGATGAATA
DNA 2: TATTCATCTCTGACGCTTACTGGCTTGAGT
modifications: 5mC at C16 of strand 1; methylation of the complement not stated
Consider B2, for which the binding result in data set [3] is “binds”.

B3: SDHB promoter c-Fos binding region (dsDNA)
DNA 1: ACAGAAAGGGCTGACTCAAGCCAGTAAGCG
DNA 2: CGCTTACTGGCTTGAGTCAGCCCTTTCTGT
For the molecule B3, in data set [4], the binding result is “binds”.
